This note sets out measurements from publication PMC6962426.

This test has as its target histidine-tagged FcγRIIIa-158V receptor. Put plainly: Fcγ receptor binding assay. The note with it: read at the highest antibody concentration, x about 0.0014 (axis unit printed as µg/mL); parent: est. 260; read off a plot.

For the substance IgG1-B (parent) N325D, the response came to 55 RU.

In the case of IgG1-B (parent) N325Q, the response is 17 RU.
